Columns and labels:
human D374Y PCSK9 = human D374Y PCSK9 (Homo sapiens, UniProt Q8NBP7, D374Y/E620G/G670E/V474I); assay: Receptor ligand blocking screen / functional screening of hybridoma antibodies; assay type: binding
Procedure: To screen for the antibodies that block PCSK9 binding to LDLR an assay was developed using the D374Y PCSK9 mutant. […] The following protocol was employed in the receptor ligand blocking screen: Costar 3702 medium binding 384 well plates (Corning Life Sciences) were employed in the screen. The plates were coated with goat anti-LDLR (R&D Cat # AF2148) at 2 μg/ml in 1×PBS/0.05% Azide at a volume of 40 μl/well. The plates were incubated at 4° C. overnight. The plates were then washed using a Titertek plate washer (Titertek, Huntsville, Ala.). A 3-cycle wash was performed. The plates were blocked with 90 μl of 1×PBS/1% milk and incubated approximately 30 minutes at room temperature. The plates were then washed using the Titertek plate washer. A 3-cycle wash was performed. The capture sample was LDLR (R&D, Cat #2148LD/CF), and was added at 0.4 μg/ml in 1×PBS/1% milk/10 mM Ca^2+ at a volume of 40 μl/well. The plates were then incubated for 1 hour and 10 minutes at room temperature. Contemporaneously, 20 ng/ml of biotinylated human D374Y PCSK9 was incubated with 15 micro liters of hybridoma exhaust supernatant in Nunc polypropylene plates and the exhaust supernatant concentration was diluted 1:5. The plates were then pre-incubated for about 1 hour and 30 minutes at room temperature. Next, the plates were washed using the Titertek plate washer operated using a 3-cycle wash. 50 μl/well of the pre-incubated mixture was transferred onto the LDLR coated ELISA plates and incubated for 1 hour at room temperature. To detect LDLR-bound b-PCSK9, 40 μl/well streptavidin HRP at 500 ng/ml in assay diluent was added to the plates. The plates were incubated for 1 hour at room temperature. The plates were again washed using a Titertek plate washer. A 3-cycle wash was performed. Finally, 40 μl/well of One-step TMB (Neogen, Lexington, Ky.) was added to the plate and was quenched with 40 μl/well of 1N hydrochloric acid after 30 minutes at room temperature. OD's were read immediately at 450 nm using a Titertek plate reader.
The receptor ligand assay was then repeated using the mutant enzyme on the 384 member subset of neutralizers identified in the first large scale receptor ligand inhibition assay. The same protocol was employed in the screen of the 384 member blocker subset assay as was done in the large scale receptor ligand blocking screen.
Limiting dilution was used to isolate a manageable number of clones from each line. […] The isolated clones were each expanded in 50-100 ml of hybridoma media and allowed to grow to exhaustion, (i.e., less than about 10% cell viability). The concentration and potency of the antibodies to PCSK9 in the supernatants of those cultures were determined by ELISA and by in vitro functional testing, as described herein.

human PCSK9 [1] = molecular target: T1, human PCSK9 (Homo sapiens, UniProt Q8NBP7, E620G/G670E/V474I); assay: KinExA affinity analysis; assay type: binding; details: hPCSK9, KinExA
T1 construct: made in house
Source text: Briefly, Reacti-Gel™ (6×) (Pierce) was pre-coated with one of human, V5-tagged cyno or His-tagged mouse PCSK9 proteins and blocked with BSA. […] Equilibrium dissociation constant (KD) were obtained from nonlinear regression of the two sets of competition curves using a one-site homogeneous binding model. The KinExA® Pro software was employed in the analysis.

human PCSK9 [2] = molecular target: T1, human PCSK9; assay: BIAcore affinity analysis; assay type: binding
Procedure: Briefly, the surface plasmon resonance experiments were performed using Biacore 2000 optical biosensors (Biacore, GE Healthcare, Piscataway, N.J.). […] The concentration of PCSK9 protein was varied at 2 fold intervals (the analyte) and was injected over the immobilized antibody surface (at a flow rate of 100 μl/min for 1.5 minutes). […]
The binding signal obtained was proportional to the free PCSK9 in solution.
Antibody binding kinetic parameters including ka (association rate constant), […] (dissociation rate constant), and KD (dissociation equilibrium constant) were determined using the BIA evaluation 3.1 computer program (BIAcore, Inc. Piscataway, N.J.).

PCSK9 protein = molecular target: T2, PCSK9 protein (Mus musculus, UniProt Q80W65); assay: Serum cholesterol and HDL in WT mice, 13 day study; assay type: in vivo; details: 10 mg/kg, repeated 13 day study
T2 construct: endogenous in cells; host or cells: WT C57BL/6 mice, in vivo
Source text: Male WT mice (C57BL/6 strain, aged 9-10 weeks, 17-27 g) obtained from Jackson Laboratory (Bar Harbor, Me.) were fed a normal chow (Harland-Teklad, Diet 2918) through out the duration of the experiment. […] Naïve mice were also set aside as naïve control group.
Animals were sacrificed and livers were extracted and prepared as in Example 13.

Sequence of human D374Y PCSK9 (Q8NBP7 153-692 D374Y/V474I/E620G/G670E): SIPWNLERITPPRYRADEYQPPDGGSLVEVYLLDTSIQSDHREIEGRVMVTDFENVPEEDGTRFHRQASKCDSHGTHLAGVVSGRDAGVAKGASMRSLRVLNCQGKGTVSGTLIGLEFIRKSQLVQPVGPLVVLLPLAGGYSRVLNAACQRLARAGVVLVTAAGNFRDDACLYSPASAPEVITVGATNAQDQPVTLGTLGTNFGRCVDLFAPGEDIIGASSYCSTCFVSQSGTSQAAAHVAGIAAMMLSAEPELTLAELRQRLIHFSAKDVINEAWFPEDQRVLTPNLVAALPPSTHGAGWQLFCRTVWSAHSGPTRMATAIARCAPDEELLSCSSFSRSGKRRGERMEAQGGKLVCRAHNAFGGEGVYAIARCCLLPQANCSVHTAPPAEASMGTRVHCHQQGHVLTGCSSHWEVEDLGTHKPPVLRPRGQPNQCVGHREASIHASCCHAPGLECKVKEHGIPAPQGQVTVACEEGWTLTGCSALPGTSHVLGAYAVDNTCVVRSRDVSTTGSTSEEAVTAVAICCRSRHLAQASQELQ
T1 sequence (Q8NBP7 153-692 V474I/E620G/G670E): as the sequence (Q8NBP7 153-692 D374Y/V474I/E620G/G670E) above, with Y222D counted along it
T2 sequence (Q80W65 156-694): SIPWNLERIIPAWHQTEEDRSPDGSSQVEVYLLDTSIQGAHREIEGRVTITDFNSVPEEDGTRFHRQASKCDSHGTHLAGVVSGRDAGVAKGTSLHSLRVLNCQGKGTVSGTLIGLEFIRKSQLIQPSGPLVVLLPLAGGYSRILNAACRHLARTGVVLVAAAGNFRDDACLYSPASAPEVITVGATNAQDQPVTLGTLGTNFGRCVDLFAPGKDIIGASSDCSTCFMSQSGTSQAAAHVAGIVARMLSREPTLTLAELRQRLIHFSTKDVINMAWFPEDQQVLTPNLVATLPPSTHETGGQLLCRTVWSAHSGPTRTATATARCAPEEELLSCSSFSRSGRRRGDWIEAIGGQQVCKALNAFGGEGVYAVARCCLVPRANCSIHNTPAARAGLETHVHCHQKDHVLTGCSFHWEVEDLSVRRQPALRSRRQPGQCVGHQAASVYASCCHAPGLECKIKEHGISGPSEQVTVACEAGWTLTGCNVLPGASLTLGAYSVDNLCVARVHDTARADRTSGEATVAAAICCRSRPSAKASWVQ

B1: 3B6: anti-PCSK9 ABP, light/heavy variable region SEQ ID NO 46/60 (antibody, listed as Homo sapiens, V domains shown)
VH: QVQLVQSGAEVKKPGASVKVSCKASGYTFTSYGISWVRQAPGQGLEWMGWISTYNGNTNYAQKVQGRVTMTTDTSTSTAYMELRSLRSDDTAVYYCARGYTRDYWGQGTLVTVSS
VL: QPVLTQPLFASASLGASVTLTCTLSSGYSSYEVDWYQQRPGKGPRFVMRVDTGGIVGSKGEGIPDRFSVLGSGLNRYLTIKNIQEEDESDYHCGADHGSGTNFVVVFGGGTKLTVL
Question: Which neutralizing ability (human D374Y PCSK9) does the source give for B1 here?
Answer: weak neutralizers

B2: 25A7: anti-PCSK9 ABP, light/heavy variable region SEQ ID NO 15/58; neutralizing clone 25A7.3 (antibody, listed as Homo sapiens, V domains shown)
VH: QVQLVQSGAEVKKPGASVKVSCKASGYTFPSYGISWVRQAPGQGLEWMGWISAYNGNTNYAEKLQGRVTMTTDTSTSTAYMEVRSLRSDDTAVFYCARGYVMDVWGQGTTVTVSS
VL: QSALTQPASVSGSPGQSITISCTGTSSDVGRYNSVSWYQHHPGKAPKVMIYEVSNRPSGVSTRFSGSKSGNTASLTISGLQAEDEADYYCSSYTSSSVVFGGGTKLTVL
Question: How did the “blocking of PCSK9/LDLR in the functional assays” value (human D374Y PCSK9; hybridoma clones) turn out when B2 was run?
Answer: neutralizing

B3: 13H1: anti-PCSK9 ABP, light/heavy variable region SEQ ID NO 28/91 (antibody, listed as Homo sapiens, V domains shown)
VH: QVQLQQSGPGLVKPSQTLSLTCAISGDSVSSNSAAWNWIRQSPSRGLEWLGRTYYRSKWYKNYSVSVKSRITINPDTSKNQFSLQLNSVTPGDTAVYYCARGGPTAAFDYWGQGTLVTVSS
VL: LSALTQPASVSGSPGQSITISCTGTSSDVGNYNLVSWYQQYSGKAPKLMIYEVSKRPSGVSNRFSGSKSGNTASLTISGLQAEDEADYYCCSYAGSSTLVFGGGTKLTVL
Question: Which neutralizing ability (human D374Y PCSK9) does the source give for B3 here?
Answer: non-neutralizing

B4: 13B5: anti-PCSK9 ABP, light/heavy variable region SEQ ID NO 42/69 (antibody, listed as Homo sapiens, V domains shown)
VH: EVQLLESGGGLVQPGGSLRLSCAASGFTFSSYAMSWVRQAPGKGLEWVSTISGSGGRTYYADSVKGRFTISRDNSKNTLYLQMNSLRAEDTAVYYCAKEVGSPFDYWGQGTLVTVSS
VL: QSVLTQPPSVSAAPGQKVTISCSGSNSNIGNNYVSWYQQLPGTAPKLLIYDNNKRPSGIPDRFSGSNSGTSATLGITGLQTGDEADYYCGTWDSSLSAVVFGGGTKLTVL
Question: For B4, which neutralizing ability (human D374Y PCSK9) is on record?
Answer: non-neutralizing

B5: 16F12: anti-PCSK9 ABP, light/heavy variable region SEQ ID NO 35/79 (antibody, listed as Homo sapiens, V domains shown)
VH: QVHLVESGGGVVQPGRSLRLSCAASGFTFNSFGMHWVRQAPGKGLEWVALIWSDGSDEYYADSVKGRFTISRDNSKNTLYLQMNSLRAEDTAVYYCARAIAALYYYYGMDVWGQGTTVTVSS
VL: QSVLTQPPSVSAAPGQKVTISCSGSSSNIGNNFVSWYQQLPGTAPKLLIYDYNKRPSGIPDRFSGSKSGTSATLGITGLQTGDEADYYCGTWDSSLSAYVFGTGTRVTVL
Question: With B5 as the molecule, how does the Kd (human PCSK9 [1]) read?
Answer: 0.015 nM

Question: And the Kd (human PCSK9 [2]; hPCSK9, pH 7.4 (Table 7.1))?
Answer: 0.47 nM

Question: And the Koff (human PCSK9 [2]; pH 6)?
Answer: 7.007e-05 s⁻¹

Question: What about the Kon (human PCSK9 [2]; pH 6) of the same molecule?
Answer: 2.392e+06 M⁻¹ s⁻¹

Question: And the Kd (human PCSK9 [2]; pH 6 (pH 6.0 HBS-P buffer, n=1))?
Answer: 0.029 nM

Question: What about the Koff (human PCSK9 [2]; pH 7.4) of the same molecule?
Answer: 4.983e-05 s⁻¹

Question: What about the Kon (human PCSK9 [2]; pH 7.4) of the same molecule?
Answer: 106400 M⁻¹ s⁻¹

Question: And the Kd (human PCSK9 [2]; pH 7.4 (Table 7.2))?
Answer: 0.47 nM

Question: What about the “total serum cholesterol after a single dose” value (PCSK9 protein) of the same molecule?
Answer: significant and substantial decreases in total serum cholesterol

B6: 27B2: anti-PCSK9 ABP, light/heavy variable region SEQ ID NO 13/87 (antibody, listed as Homo sapiens, V domains shown)
VH: QVQLQESGPGLVKPSQTLSLTCTVSGGSISSGGYYWSWIRQHPGKGLEWIGYIYNSGSTYYNPSLKSRVTISVDTSKNQFSLKLSSVTAADTAVYYCAREDTAMVPYFDYWGQGTLVTVSS
VL: QSVLTQPPSVSGAPGQRVTISCTGSSSNIGAHYDVHWYQQVPGTAPKLLIYGNTYRPSGVPDRFSGSKSGTSASLAITGLQAEDEADYYCQSYDNSLSGVVFGGGTKLTVL
Question: B6 was tested. Which neutralizing ability (human D374Y PCSK9) did it give?
Answer: non-neutralizing
